Test results reported in patent publication US20070117112.
Like-named read-outs stand apart in the source and are kept apart here.

Assays:
[1] = target: T7 RNA polymerase Y639L/H784A/K378R (LAR) (Bacteriophage T7) (UniProt P00573); settings: 2'-OMe NTPs
[2] = target: T7 RNA polymerase Y639L/H784A/K378R (LAR) (Bacteriophage T7) (UniProt P00573); settings: 15 mL 2'-OMe NTP transcription, 8 mM MgCl2, 2.5 mM MnCl2
[3] = target: T7 RNA polymerase P266L/Y639L/H784A/K378R (LLAR) (Bacteriophage T7) (UniProt P00573); settings: 2'-OMe NTP transcription; at 2.6 ug/ml enzyme (130 at 11, 13 at 0.66, 8.3 at 0.16 ug/ml); template made with 5' poly-A extended primer
[4] = target: T7 RNA polymerase Y639L/H784A/K378R (LAR) (Bacteriophage T7) (UniProt P00573); settings: 2'-OMe NTP transcription; 2.1 ug/ml enzyme, 8 mM MgCl2, 2.5 mM MnCl2, 37 C; template made with 5' poly-A extended primer

## TAATACGACTCACTATAGGAGCCTTCCTCCGGANNNNNNNNNNNNNNNNNNNNNNNNNNNNNNNNNNNNNNNNTCCGGTTTCCCGAGCTT (double strand) [Template 6]
[1]; listed as Pool 2, relative to Pool 4
  activity (% relative yield): 88

## TAATACGACTCACTATAGGGAGAATTCCGACCACAAGNNNNNNNNNNNNNNNNNNNNNNNNNNNNNNNNNNNNNNNNCATATGTGCGTCTACATGGATCCTCA (double strand) [Template 4]
[2]
  activity (nmol transcript): 27.8

## TAATACGACTCACTATAGGGAGAATTCCGACCAGAAGCTTNNNNNNNNNNNNNNNNNNNNNNNNNNNNNNNNNNNNNNNNCATATGTGCGTCTACATGGATCCTCA (double strand) [Template 1]
[2]
  activity (nmol transcript): 18.7

## TAATACGACTCACTATAGGGAGACAAGAATAAACGCTCAANNNNNNNNNNNNNNNNNNNNNNNNNNNNNNNNNNNNNNNNTTCGACAGGAGGCTCACAACAGGC (double strand) [Template 7]
[1]; listed as Pool 3, relative to Pool 4
  activity (% relative yield): 130

## TAATACGACTCACTATAGGGAGAGACAAGCTTGGGTCNNNNNNNNNNNNNNNNNNNNNNNNNNNNNNNNNNNNNNNNAGAAGAGAAAGAGAAGTTAATTAAGGATCCTCAG (double strand) [Template 3]
[2]
  activity (nmol transcript): 20.2

## TAATACGACTCACTATAGGGAGAGCGGAAGCCGTGCTGGGGCCNNNNNNNNNNNNNNNNNNNNNNNNNNNNNNNNNNNNNNNNCATAACCCAGAGGTCGATGGATC (double strand) [Template 2]
[2]
  activity (nmol transcript): 17.4

## TAATACGACTCACTATAGGGCCTTGTAGCGTGCATTCTTGNNNNNNNNNNNNNNNNNNNNNNNNNNNNNNCTAACATACTCCGAATCTGTCGAA (double strand) [Template 5]
[1]; listed as Pool 1, relative to Pool 4
  activity (% relative yield): 80

## TAATACGACTCACTATAGGGGAGTACAATAACCAGACATNNNNNNNNNNNNNNNNNNNNNNNNNNNNNNGGATCGTTACGACTAGCATCGATG (double strand) [Template 8]
[1]; listed as Pool 4 (reference)
  activity (% relative yield): 100

## TAATACGACTCACTATAGGGGAGTACAATAACGTTCTCGNNNNNNNNNNNNNNNNNNNNNNNNNNNNNNGGATCGTTACGACTAGCATCGATG (double strand) [ARC2118 template library]
[3]
  activity (% normalized yield): 65
[4]
  activity (% normalized yield): 100
